Assay results taken from patent US20110091994A1, “Methods for Screening Compounds for Treating and/or Preventing an Hepatitis C Virus Infection” (priority 2008, published 2011).
Like-named read-outs stand apart in the source and are kept apart here.

B1: RAI14 (protein, UniProt Q9P0K7 1-980, looked up)
Ankycorbin: MKSLKAKFRKSDTNEWNKNDDRLLQAVENGDAEKVASLLGKKGASATKHDSEGKTAFHLAAAKGHVECLRVMITHGVDVTAQDTTGHSALHLAAKNSHHECIRKLLQSKCPAESVDSSGKTALHYAAAQGCLQAVQILCEHKSPINLKDLDGNIPLLLAVQNGHSEICHFLLDHGADVNSRNKSGRTALMLACEIGSSNAVEALIKKGADLNLVDSLGYNALHYSKLSENAGIQSLLLSKISQDADLKTPTKPKQHDQVSKISSERSGTPKKRKAPPPPISPTQLSDVSSPRSITSTPLSGKESVFFAEPPFKAEISSIRENKDRLSDSTTGADSLLDISSEADQQDLLSLLQAKVASLTLHNKELQDKLQAKSPKEAEADLSFDSYHSTQTDLGPSLGKPGETSPPDSKSSPSVLIHSLGKSTTDNDVRIQQLQEILQDLQKRLESSEAERKQLQVELQSRRAELVCLNNTEISENSSDLSQKLKETQSKYEEAMKEVLSVQKQMKLGLVSPESMDNYSHFHELRVTEEEINVLKQDLQNALEESERNKEKVRELEEKLVEREKGTVIKPPVEEYEEMKSSYCSVIENMNKEKAFLFEKYQEAQEEIMKLKDTLKSQMTQEASDEAEDMKEAMNRMIDELNKQVSELSQLYKEAQAELEDYRKRKSLEDVTAEYIHKAEHEKLMQLTNVSRAKAEDALSEMKSQYSKVLNELTQLKQLVDAQKENSVSITEHLQVITTLRTAAKEMEEKISNLKEHLASKEVEVAKLEKQLLEEKAAMTDAMVPRSSYEKLQSSLESEVSVLASKLKESVKEKEKVHSEVVQIRSEVSQVKREKENIQTLLKSKEQEVNELLQKFQQAQEELAEMKRYAESSSKLEEDKDKKINEMSKEVTKLKEALNSLSQLSYSTSSSKRQSQQLEALQQQVKQLQNQLAECKKQHQEVISVYRMHLLYAVQGQMDEDVQKVLKQILTMCKNQSQKK
B2: TXNDC11 (protein, UniProt Q6PKC3 1-985, looked up)
Thioredoxin domain-containing …: MSECGGRGGGSSSSEDAEDEGGGGGGPAGSDCLSSSPTLATASSAGRLRRGLRGAFLMARQRPELLCGAVALGCALLLALKFTCSRAKDVIIPAKPPVSFFSLRSPVLDLFQGQLDYAEYVRRDSEVVLLFFYAPWCGQSIAARAEIEQAASRLSDQVLFVAINCWWNQGKCRKQKHFFYFPVIYLYHRSFGPIEYKGPMSAVYIEKFVRRVMKPLLYIPSQSELLDFLSNYEPGVLGYFEFSGSPQPPGYLTFFTSALHSLKKALESTSSPRALVSFTGEWHLETKIYVLDYLGTVRFGVITNKHLAKLVSLVHSGSVYLHRHFNTSLVFPREVLNYTAENICKWALENQETLFRWLRPHGGKSLLLNNELKKGPALFLFIPFNPLAESHPLIDEITEVALEYNNCHGDQVVERLLQHLRRVDAPVLESLALEVPAQLPDPPTITASPCCNTVVLPQWHSFSRTHNVCELCVNQTSGGMKPSSVSVPQCSFFEMAAALDSFYLKEQTFYHVASDSIECSNFLTSYSPFSYYTACCRTISRGVSGFIDSEQGVFEAPTVAFSSLEKKCEVDAPSSVPHIEENRYLFPEVDMTSTNFTGLSCRTNKTLNIYLLDSNLFWLYAERLGAPSSTQVKEFAAIVDVKEESHYILDPKQALMKLTLESFIQNFSVLYSPLKRHLIGSGSAQFPSQHLITEVTTDTFWEVVLQKQDVLLLYYAPWCGFCPSLNHIFIQLARNLPMDTFTVARIDVSQNDLPWEFMVDRLPTVLFFPCNRKDLSVKYPEDVPITLPNLLRFILHHSDPASSPQNVANSPTKECLQSEAVLQRGHISHLEREIQKLRAEISSLQRAQVQVESQLSSARRDEHRLRQQQRALEEQHSLLHAHSEQLQALYEQKTRELQELARKLQELADASENLLTENTWLKILVATMERKLEGRDGAESLAAQREVHPKQPEPSATPQLPGSSPPPANVSATLVSERNKENRTD
B3: EIF4ENIF1 (protein, UniProt Q9NRA8 1-985, looked up)
Eukaryotic translation …: MDRRSMGETESGDAFLDLKKPPASKCPHRYTKEELLDIKELPHSKQRPSCLSEKYDSDGVWDPEKWHASLYPASGRSSPVESLKKELDTDRPSLVRRIVDPRERVKEDDLDVVLSPQRRSFGGGCHVTAAVSSRRSGSPLEKDSDGLRLLGGRRIGSGRIISARTFEKDHRLSDKDLRDLRDRDRERDFKDKRFRREFGDSKRVFGERRRNDSYTEEEPEWFSAGPTSQSETIELTGFDDKILEEDHKGRKRTRRRTASVKEGIVECNGGVAEEDEVEVILAQEPAADQEVPRDAVLPEQSPGDFDFNEFFNLDKVPCLASMIEDVLGEGSVSASRFSRWFSNPSRSGSRSSSLGSTPHEELERLAGLEQAILSPGQNSGNYFAPIPLEDHAENKVDILEMLQKAKVDLKPLLSSLSANKEKLKESSHSGVVLSVEEVEAGLKGLKVDQQVKNSTPFMAEHLEETLSAVTNNRQLKKDGDMTAFNKLVSTMKASGTLPSQPKVSRNLESHLMSPAEIPGQPVPKNILQELLGQPVQRPASSNLLSGLMGSLEPTTSLLGQRAPSPPLSQVFQTRAASADYLRPRIPSPIGFTPGPQQLLGDPFQGMRKPMSPITAQMSQLELQQAALEGLALPHDLAVQAANFYQPGFGKPQVDRTRDGFRNRQQRVTKSPAPVHRGNSSSPAPAASITSMLSPSFTPTSVIRKMYESKEKSKEEPASGKAALGDSKEDTQKASEENLLSSSSVPSADRDSSPTTNSKLSALQRSSCSTPLSQANRYTKEQDYRPKATGRKTPTLASPVPTTPFLRPVHQVPLVPHVPMVRPAHQLHPGLVQRMLAQGVHPQHLPSLLQTGVLPPGMDLSHLQGISGPILGQPFYPLPAASHPLLNPRPGTPLHLAMVQQQLQRSVLHPPGSGSHAAAVSVQTTPQNVPSRSGLPHMHSQLEHRPSQRSSSPVGLAKWFGSDVLQQPLPSMPAKVISVDELEYRQ
B4: FRS3 (protein, UniProt O43559 2-492, looked up)
Fibroblast growth factor …: GSCCSCLNRDSVPDNHPTKFKVTNVDDEGVELGSGVMELTQSELVLHLHRREAVRWPYLCLRRYGYDSNLFSFESGRRCQTGQGIFAFKCSRAEEIFNLLQDLMQCNSINVMEEPVIITRNSHPAELDLPRAPQPPNALGYTVSSFSNGCPGEGPRFSAPRRLSTSSLRHPSLGEESTHALIAPDEQSHTYVNTPASEDDHRRGRHCLQPLPEGQAPFLPQARGPDQRDPQVFLQPGQVKFVLGPTPARRHMVKCQGLCPSLHDPPHHNNNNEAPSECPAQPKCTYENVTGGLWRGAGWRLSPEEPGWNGLAHRRAALLHYENLPPLPPVWESQAQQLGGEAGDDGDSRDGLTPSSNGFPDGEEDETPLQKPTSTRAAIRSHGSFPVPLTRRRGSPRVFNFDFRRPGPEPPRQLNYIQVELKGWGGDRPKGPQNPSSPQAPMPTTHPARSSDSYAVIDLKKTVAMSNLQRALPRDDGTARKTRHNSTDLPL

How the values were obtained:
HCV proteins = target: T1, HCV proteins (Hepatitis C virus genotype 1b, UniProt Q9WMX2); assay: Validation by Y2H pairwise matrices; assay type: binding; details: validation of interaction with HCV protein NS3;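 note: yeast two-hybrid pairwise tests of interactions first found in Y2H screens of HCV bait proteins against human cDNA libraries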
T1 construct: expressed in transfected cells
T1 sequence (Q9WMX2 1027-1657): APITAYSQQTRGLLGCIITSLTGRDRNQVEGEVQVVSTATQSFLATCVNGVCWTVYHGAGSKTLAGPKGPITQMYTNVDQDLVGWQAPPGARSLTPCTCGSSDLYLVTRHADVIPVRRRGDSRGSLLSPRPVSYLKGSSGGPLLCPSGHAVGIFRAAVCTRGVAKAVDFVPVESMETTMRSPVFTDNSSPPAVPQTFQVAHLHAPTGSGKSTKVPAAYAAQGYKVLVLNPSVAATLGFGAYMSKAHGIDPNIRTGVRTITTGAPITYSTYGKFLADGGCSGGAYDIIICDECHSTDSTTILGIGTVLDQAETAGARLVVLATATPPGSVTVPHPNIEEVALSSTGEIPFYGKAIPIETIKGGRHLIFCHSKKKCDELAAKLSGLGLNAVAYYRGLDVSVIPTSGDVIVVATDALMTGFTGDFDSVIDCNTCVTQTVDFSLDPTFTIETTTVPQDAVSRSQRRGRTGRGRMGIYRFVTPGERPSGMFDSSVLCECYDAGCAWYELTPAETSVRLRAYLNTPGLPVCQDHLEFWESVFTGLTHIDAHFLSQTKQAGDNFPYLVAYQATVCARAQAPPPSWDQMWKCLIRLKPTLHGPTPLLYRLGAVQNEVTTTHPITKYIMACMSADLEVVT

[1] = target: T2, HCV ORFs (Gal4-DB fusions) (Hepatitis C virus genotype 1b, UniProt Q9WMX2); assay type: binding, HCV genotype 1b, isolate con1; details: human protein as prey
T2 construct: expressed in transfected cells; host or cells: Saccharomyces cerevisiae MAV203 (IMAP1) / AH109 (IMAP2)

[2] = tested on: HCV ORFs (Gal4-DB fusions); assay type: binding, HCV genotype 1b, isolate con1; details: human protein listed by gene symbol; the value names the HCV protein it interacts with
[3] = target: T3, GST-tagged viral proteins (Hepatitis C virus genotype 1b, UniProt Q9WMX2); assay: Validation by co-affinity purification (CoAP); assay type: binding, HCV genotype 1b, isolate con1; set-up: key: +: IMAP validation; −: not validated; NA: non assayable due to default of protein expression or to cellular protein directly interacting with GST
T3 construct: expressed in transfected cells; host or cells: HEK-293T
In short: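 HEK-293T cells were co-transfected with N-terminal GST-tagged HCV bait and 3xFLAG-tagged human prey ORFs, with GST alone as control. Two days later, lysates (0.5% NP-40, pH 8.0) were pulled down on glutathione beads. Preys were detected by anti-FLAG immunoblot after SDS-PAGE.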

[4] = validation of interaction with HCV protein NS3
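Throughout, for IMAP Y2H IMAP1 (number of IST): yeast two-hybrid screens using HCV genotype 1b proteins fused to Gal4-DB as baits against prey cDNA libraries from human spleen and foetal brain, IMAP1 via transformation and IMAP2 via mating.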
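Throughout, for IMAP Y2H IMAP2 (number of IST): yeast two-hybrid screens using HCV genotype 1b proteins fused to Gal4-DB as baits against prey cDNA libraries from human spleen and foetal brain, IMAP1 via transformation and IMAP2 via mating.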
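Throughout, for Interaction with viral protein: yeast two-hybrid screens using HCV genotype 1b proteins fused to Gal4-DB as baits against prey cDNA libraries from human spleen and foetal brain, IMAP1 via transformation and IMAP2 via mating.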

Row | Molecule | Y2H matrices (HCV proteins) | IMAP Y2H IMAP1 (number of IST) ([1]; HCV protein NS3 as bait) | IMAP Y2H IMAP2 (number of IST) ([1]; HCV protein NS3 as bait) | Interaction with viral protein [2] | CoAP [3, 4] | IMAP Y2H IMAP2 (number of IST) ([1]; HCV protein NS5A as bait) | CoAP ([3]; interaction with HCV protein NS5A)
1 | B1 | + | 1 | 2 | NS3 | − |  | 
2 | B2 | + | 2 |  | NS3 |  | 1 | +
3 | B3 | + | 2 | 3 | NS3 | + |  | 
4 | B4 | + | 2 | 1 | NS3 | + |  | 
